The assay concerns the target CD3 (UniProt P07766). Nature of the assay: method and format not stated.

B1: CD3B450 (antibody, V domains shown)
VH: QVQLQQSGPGLVKPSQTLSLTCAISGDSVFNNNAAWSWIRQSPSRGLEWLGRTYYRSKWLYDYAVSVKSRITINPDTSKNQFSLQLNSVTPEDTAVYYCARGYSSSFDYWGQGTLVTVSS
VL: QSALTQPASVSGSPGQSITISCTGTSSNIGTYKFVSWYQQHPGKAPKVMIYEVSKRPSGVSNRFSGSKSGNTASLTISGLQAEDEADYYCVSYAGSGTLLFGGGTKLTVL
Consider B1, for which the Kd was 80 nM.

One may read the Kd as the constant that tells how readily two partners part at equilibrium.

The values are drawn from patent US20210214440A1.
